Laboratory results published in patent US20220040232A1.

How the values were obtained:
[1] = target: cell surface receptors for M1 peptide (TCR Vβ17) on expanded Vβ17+CD8+ T cells; assay: flow cytometry, […] (91.6) […]
[2] = target: cell surface receptors for M1 peptide (TCR Vβ17) on expanded Vβ17+CD8+ T cells; assay: tetramer staining, flow cytometry on enriched Vβ17+CD8+ T cells expanded with M1 peptide and IL-2
[3] = target: cell surface receptors for M1 peptide (TCR Vβ17) on expanded Vβ17+CD8+ T cells; assay: flow cytometry, staining with M1 peptide loaded MHC class I tetramer and anti-human Vβ17 mAb; enriched Vβ17+CD8+ T cells from day 12 PBMCs stimulated with M1 peptide and IL-2

With “Influenza A derived Matrix protein (M1) peptide loaded MHC class I tetramer (MBL, Catalog No. TS-0012-2C) (peptide-MHC)” the % M1 Tet-negative Vβ17+ cells among gated Vβ17+CD8+ T cells [1] was 11.9%, the % M1 Tet-positive Vβ17+ cells among gated Vβ17+CD8+ T cells [1] was 86.8% and the percent of expanded Vβ17+CD8+ T cells positive for the tetramer [2] was 86%. It also gave a % M1 Tet-negative Vβ17+ cells among enriched Vβ17+CD8+ T cells [3] of 11.9% and a % M1 Tet-positive Vβ17+ cells among enriched Vβ17+CD8+ T cells [3] of 86.8%.
